# Experimental data reported in article PMC4731787, “Structural basis for the recognition of two consecutive mutually interacting DPF motifs by the SGIP1 μ homology domain” (Scientific Reports, 2016).
# T1: SGIP1 μ homology domain (residues 552 to 828) (human, UniProt Q9BQI5-1 552-828)
# T1 construct: A SeMet-substituted form (E. coli B834(DE3)) was used only for the structure of the domain alone; also called SGIP1 μHD; μHD; source: E. coli BL21-Gold (DE3) or Rosetta2, purified (Glutathione Sepharose, 3C protease cleavage on the column, Superdex 200)
# T1 sequence (looked up): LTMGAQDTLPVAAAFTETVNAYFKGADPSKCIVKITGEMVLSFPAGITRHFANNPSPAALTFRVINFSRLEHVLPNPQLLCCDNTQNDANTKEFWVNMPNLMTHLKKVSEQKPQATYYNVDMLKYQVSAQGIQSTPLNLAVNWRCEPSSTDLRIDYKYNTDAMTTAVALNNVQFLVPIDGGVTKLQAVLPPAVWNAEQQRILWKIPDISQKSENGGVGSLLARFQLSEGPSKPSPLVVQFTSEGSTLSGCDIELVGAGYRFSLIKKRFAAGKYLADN
# T2: FCHo1 μ homology domain (residues 623 to 889) (human, UniProt O14526-1 623-889)
# T2 construct: FCHo1 (FCH domain only 1), human, μ homology domain, residues 623-889; also called FCHo1 μHD; source: E. coli, purified in the same manner as for the SGIP1 μHD
# T2 sequence (looked up): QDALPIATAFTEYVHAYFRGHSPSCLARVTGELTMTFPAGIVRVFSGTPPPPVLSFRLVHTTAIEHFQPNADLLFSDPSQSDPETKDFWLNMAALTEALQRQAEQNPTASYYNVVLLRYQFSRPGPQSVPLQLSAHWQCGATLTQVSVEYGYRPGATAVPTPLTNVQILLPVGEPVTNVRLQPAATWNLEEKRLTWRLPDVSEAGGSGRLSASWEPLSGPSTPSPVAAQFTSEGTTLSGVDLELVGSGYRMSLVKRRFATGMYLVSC
# B1: Eps15-618–654 (domain or fragment, human)
# chain: GPLGSYDFFQSDPFVGSDPFKDDPFGKIDPFGGDPFKGSDPFA
# notes: source: E. coli, expressed and purified in the same manner as the SGIP1 µHD
# B2: FCHo1 µ homology domain (µHD), residues 623 to 889 (domain or fragment, human, UniProt O14526-1 623-889, looked up)
# chain: QDALPIATAFTEYVHAYFRGHSPSCLARVTGELTMTFPAGIVRVFSGTPPPPVLSFRLVHTTAIEHFQPNADLLFSDPSQSDPETKDFWLNMAALTEALQRQAEQNPTASYYNVVLLRYQFSRPGPQSVPLQLSAHWQCGATLTQVSVEYGYRPGATAVPTPLTNVQILLPVGEPVTNVRLQPAATWNLEEKRLTWRLPDVSEAGGSGRLSASWEPLSGPSTPSPVAAQFTSEGTTLSGVDLELVGSGYRMSLVKRRFATGMYLVSC
# notes: also called FCHo1 µHD; human FCHo1 µHD (aa623–889); source: E. coli, expressed and purified in the same manner as the SGIP1 µHD
# How the values were obtained:
# Conditions in all cases: both partners purified
# [1] = target: B2; experiment: ITC; Eps15 fragment in the sample cell, titrated with the SGIP1 or FCHo1 µHD; 50 mM Tris-HCl (pH 8.0), 50 mM NaCl, 25 °C; VP-ITC; two data sets fitted globally (NITPIC, SEDPHAT); single-site or two-site model as named in the quantity
# [2] = target: B2; experiment: ITC; µHD, µHD mutant or α-adaptin appendage domain in the sample cell, titrated with the Eps15 fragment or peptide; 50 mM Tris-HCl (pH 8.0), 50 mM NaCl, 25 °C; VP-ITC; two data sets fitted globally (NITPIC, SEDPHAT); single-site model
# [3] = target: B1; experiment: ITC; Eps15 fragment in the sample cell, titrated with the SGIP1 or FCHo1 µHD; 50 mM Tris-HCl (pH 8.0), 50 mM NaCl, 25 °C; VP-ITC; two data sets fitted globally (NITPIC, SEDPHAT); single-site or two-site model as named in the quantity
# [4] = target: T1, SGIP1 μ homology domain (residues 552 …); experiment: ITC; VP-ITC, 25 °C, 50 mM Tris-HCl pH 8.0, 50 mM NaCl; for the majority the μHD (SGIP1, its mutants or FCHo1) in the cell, titrated with Eps15 fragments or peptides, for others the reverse (Supplementary Table 2); repeated twice, global fit with SEDPHAT, single-site or two-site model
# [5] = target: T2, FCHo1 μ homology domain (residues 623 …); experiment: as above
binder,measurement,setting,value
B1,Kd,[1],0.19 µM
same,Kd,[2],0.27 µM
same,stoichiometry N,[2],0.59
B2,stoichiometry N,[3],0.7
"DFFQSDPFVGSDPFKDDPFGKIDPFGGDPFKGSDPFA (domain or fragment, human, UniProt P42566-1 618-654, looked up, also called 37-residue region containing six consecutive DPF motifs; source: E. coli, purified in the same manner as for the SGIP1 μHD)",Kd of the high-affinity site (two-site model),[4],~0.065 µM
same,binding result,[5],binds
